{
  "source": "patent US7030099B2",
  "about": "“Tumor specific promoters of the midkine gene that allow for selective expression in P53-inactivated cells” (Research Corporation Technologies, Inc., priority 2000, dated 2006)",
  "molecules": {"B1": {"name": "MK335bp: 335 bp midkine region from −285 to +50, base sequence SEQ ID NO: 4 (nucleic acid, listed as Homo sapiens)", "DNA": "ACCACCGCTCGGAAGATGGGGCCGGGAGAGGCCGCCGTCGCAGCGCAGAGGGCACCGGCGGGGAGACGCGAGGACGCGGGGCCGGGAACACGGACGCCGGAGTAGAAGCGCGGGGGGGGCGGGCTGGAGCGGGGGCGGGGACGCCGGGGTCGGGGGCGGTGCGGGTTTGAGGGGAGGGGGCGGGGCGGGTCCTTCCCTGGGGGGGTGGGGAGAGGGGGCGGGGGCCCATGTGACCGGCTCAGACCGGTTCTGGAGACAAAAGGGGCCGCGGCGGCCGGAGCGGGACGGGCCCGGCGCGGGAGGGAGCGAAGCAGCGCGGGCAGCGAGCGAGTGAG"}, "B2": {"name": "MK0.6: 0.6 kb (609 bp, −559 to +50) of the human midkine genomic gene, base sequence SEQ ID NO: 1 (nucleic acid, listed as Homo sapiens)", "DNA": "GCTTCCCTGCCCACCCGCGGAAACCGCCCCAGGTGGCCGCGCCCCCTCCCCAGCAGCCAGCAGGGCGCCAGGGCTGAGCCGGCCGTGGAGGGGAGCGGGTCCCGGGGGTTATACAGGCGCCGGGCGTCCGCGGCAGGCAAGAGAAGCTGAGGCCTGAGAACGGCCCGGGCCTTGGCGTACGGCAGGGGACGACCTGGGATGGGGGCAGCGGGCGGCGGCGCAGGGAGTGGGCCGGGGCCGGTGTGCGCGGGCGGGACGGGGCCGGGGTCGGGAGACCACCGCTCGGAAGATGGGGCCGGGAGAGGCCGCCGTCGCAGCGCAGAGGGCACCGGCGGGGAGACGCGAGGACGCGGGGCCGGGAACACGGACGCCGGAGTAGAAGCGCGGGGGGGGCGGGCTGGAGCGGGGGCGGGGACGCCGGGGTCGGGGGCGGTGCGGGTTTGAGGGGAGGGGGCGGGGCGGGTCCTTCCCTGGGGGGGTGGGGAGAGGGGGCGGGGGCCCATGTGACCGGCTCAGACCGGTTCTGGAGACAAAAGGGGCCGCGGCGGCCGGAGCGGGACGGGCCCGGCGCGGGAGGGAGCGAAGCAGCGCGGGCAGCGAGCGAGTGAG"}},
  "key": {"[1]": {"details": "as currently used for treatment of cytomegalovirus infections; cited from earlier work"}, "lung cancer cells QG-56": {"tested_on": "lung cancer cells QG-56", "experiment": "In vitro sensitivity to GCV of MK0.6-TK-introduced cells", "format": "cell-based, human", "protocol": "(§1) (2) Then, the tumor-specificity of this MK0.6 promoter was examined using the human tumor cells and normal fibroblasts. As described above, MK0.6-TK was introduced into various types of cells using lipofectin, and they were cultured in the presence of 400 μg/ml of G418 for ten days to obtain cells in which the MK0.6-TK gene was expressed. Thus, these gene-introduced cells were plated at 500 cells/well of 96-well culture plates, and were cultured in the presence of various concentrations of GCV for seven days. The survival rate of the cells was examined using the Cell Counting Kit-8. The results obtained are shown in FIG. 3A, FIG. 3B and FIG. 3C."}, "[2]": {"tested_on": "lung cancer cells QG-56, PC-1, human breast cancer cells BT549", "experiment": "Luciferase assay of midkine promoter activity in tumor cells", "format": "cell-based", "details": "FIG. 6", "source_text": "Using the PCR method based on the information of the midkine genomic DNA, a DNA fragment that corresponds to a 335 bp region (MK335bp) from −285 to +50 and that has the base sequence set forth in SEQ ID NO: 4 was synthesized, and after confirming the sequences, it was inserted into pCR2.1 (manufactured by Invitrogen). After excising MK335bp from this DNA, it was ligated to pGL2-Basic (manufactured by Promega) to construct a plasmid for detecting promoter activity. Furthermore, using pGL2-Control (manufactured by Promega) containing the promoter of SV40 virus and pGL2-Basic containing a similarly constructed 609 bp midkine promoter (MK0.6), promoter activity was examined by the following method.\nThe lung cancer cells QG-56, PC-1, and human breast cancer cells BT549 that were cultured in DMEM (Sigma) supplemented with 10% bovine fetal serum, were transfected. After 10 μg each of these plasmids and lipofectin (manufactured by Life Technologies) were mixed, it was allowed to stand at room temperature for 30 minutes to form a complex. […] In order to normalize the efficiency of gene introduction, 1 μg of pRL-TK plasmid (manufactured by Promega) was included in each gene introduction group, and the Renilla luciferase activity by the TK promoter was determined, based on which the Firefly luciferase activity was corrected."}, "[3]": {"tested_on": "normal human fibroblasts MRC-5", "experiment": "CAT assay of promoter transcription activity, normal cells", "format": "cell-based", "details": "FIG. 1", "protocol": "(§2) Using the above plasmid, or a plasmid pCAT-Control (manufactured by Promega) having the promoter of SV40 virus, and a plasmid pCAT-Basic (manufactured by Promega) containing no promoters, gene introduction was performed on the lung cancer cells QG-56, the neuroblastoma NGP, and the normal human fibroblasts MRC-5 that were being cultured in a DMEM (Sigma) supplemented with 10% bovine fetal serum. After 10 μg each of these plasmids and lipofectin (Life Technologies) were mixed, it was allowed to stand at room temperature for 30 minutes to form a complex. Then the complex, after removing the bovine fetal serum therefrom, was contacted with the cells. Eight hours later culture medium supplemented with bovine fetal serum was added, cultured for 40 hours, and then the gene-introduced cells were disrupted by ultrasonication. After centrifugation, the supernatants were used to examine their transcription activities with the known CAT assay method (Gorman, C M et al., Mol. Cell. Biol., 2:1044–1051, 1982) using [^14C]-chloramphenicol and acetyl CoA. At this time, in order to normalize the efficiency of gene introduction, 1 μg of the β-galactosidase gene (pCH110, manufactured by Amersham) was introduced at the same time, and the β-galactosidase activity (Heromel, P. et al., Cell, 39:653–662, 1984) was determined."}, "immortalized MRC-5 cells": {"tested_on": "immortalized MRC-5 cells", "experiment": "Luciferase assay of MK0.6 promoter activity under expression of wild-type p53", "format": "cell-based, human", "details": "FIG. 5", "source_text": "In at least about 50% of human solid tumors, the loss of p53 gene functions is observed, and forced expression of-the wild-type p53 gene in tumors arrests tumor growth in some cases. Thus, using the MRC-5 cells that had been immortalized by destroying the functions of the p53 gene, DNA plasmid was introduced in which the luciferase gene, a reporter gene, was ligated downstream of the MK0.6 promoter, and the transcription activity of the MK0.6 promoter under the expression of the wild-type p53 gene was examined.\nFor this purpose, the MK0.6-CAT plasmid prepared in Example 1 was cleaved with HindIII, and the MK0.6 kb gene obtained was inserted into the HindIII site of pGL2-Basic (manufactured by Promega). […] After 48 hours-culture, the cells were disrupted using the Dual-Luciferase Reporter Assay System (manufactured by Promega), and the Firefly luciferase activity therein was determined using the reagents in the same kit. In order to normalize the efficiency of transfection, 1 μg of pRL-TK plasmid (manufactured by Promega) was included in each transfection, and the Renilla luciferase activity by the TK promoter was determined, based on which the Firefly luciferase activity was corrected."}, "normal MRC-5 cells": {"tested_on": "normal MRC-5 cells", "experiment": "In vitro sensitivity to GCV of promoter-TK gene-introduced cells (Cell Counting Kit-8 survival)", "format": "cell-based, human", "details": "HSV-TK gene controlled by the promoter, GCV seven days, FIG. 2A", "protocol": "(§3) (1) In order to examine cytotoxic effects by the transcription activity of the promoter obtained from the midkine gene, herpes simplex virus thymidine kinase (HSV-TK), a suicide gene, was ligated downstream of MK0.6 and MK2.3, and the plasmid was introduced in cells, and a prodrug gancyclovir (GCV) was added into the culture medium of the gene-introduced cells. The method of determining the cytotoxic effect by this system is as described in Moolten, FL. Cancer Gene Ther., 1:279–287, 1994.\n(§4) First, the CMV promoter of pcDNA3 (manufactured by Invitrogen) was removed using NruI and HindIII sites, to which MK2.3 or Mk0.6 was inserted, and then using the EcoRV site, the HSV-TK gene excised from pMK (Brinster, R L et al., Cell, 27:223–231, 1981) with BglI and EcoRI was inserted. Each of the plasmids thus obtained (MK2.3-TK and MK0.6-TK) was introduced, as described above, using lipofectin into MRC-5 which are normal cells, or MRC-5 cells that had been immortalized by inactivating the functions of the p53 tumor suppressor gene. In order to utilize the expression of the Neo gene contained in pcDNA3 as drug resistant markers, the cells were cultured with 400 μg/ml of G418 (manufactured by Life Technologies) for ten days to establish the cells that expressed MK2.3-TK and MK0.6-TK, respectively. These cells were then plated at 500 cells/well of 96-well culture plates, and were cultured in the presence of various concentrations of GCV (manufactured by F. Hoffman-La Roche) for seven days. The survival rate of the cells was examined using the Cell Counting Kit-8 (manufactured by Dojin Kagaku). The survival of the cells at a GCV concentration of 0 μg/ml was set as 100%, and the survival for each experiment group is shown in terms of percentage in FIG. 2A and FIG. 2B."}, "[4]": {"tested_on": "immortalized MRC-5 cells (p53 functions inactivated)", "experiment": "In vitro sensitivity to GCV of promoter-TK gene-introduced cells (Cell Counting Kit-8 survival)", "format": "cell-based, human", "details": "HSV-TK gene powered by the promoter, GCV seven days, FIG. 2B", "protocol": "as §3, §4"}, "[5]": {"tested_on": "lung cancer cells QG-56, neuroblastoma NGP", "experiment": "CAT assay of promoter transcription activity, tumor cells", "format": "cell-based, human", "protocol": "as §2"}, "neuroblastoma NGP cells": {"tested_on": "neuroblastoma NGP cells", "experiment": "In vitro sensitivity to GCV of MK0.6-TK-introduced cells", "format": "cell-based, human", "details": "MK0.6-TK-introduced NGP; GCV seven days; FIG. 3B", "protocol": "as §1"}, "normal fibroblasts HEF": {"tested_on": "normal fibroblasts HEF", "experiment": "In vitro sensitivity to GCV of MK0.6-TK-introduced cells", "format": "cell-based, human", "details": "MK0.6-TK-introduced HEF; GCV seven days; FIG. 3C", "protocol": "as §1"}},
  "data": [
    {"molecule": "Nc1nc(O)c2ncn(COC(CO)CO)c2n1", "note": "[GCV, gancyclovir, reference compound]", "values": [
      {"measurement": "maximum blood concentration of GCV", "setting": "[1]", "value": 1, "unit": "µg/mL"},
      {"measurement": "concentration at which the cytotoxic effects by GCV was obtained", "setting": "lung cancer cells QG-56; MK0.6-TK-introduced tumor cells (QG-56, NGP)", "value": 0.1, "unit": "µg/mL"}
    ]},
    {"molecule": "B1", "values": [
      {"measurement": "promoter activity compared with MK0.6", "setting": "[2]", "value": "almost the same activity as that of MK0.6"}
    ]},
    {"molecule": "B2", "values": [
      {"measurement": "transcriptional activity compared with other midkine promoter fragments", "setting": "[3]", "value": "rather decreased in the normal cells"},
      {"measurement": "MK0.6 promoter activity with increasing amounts of CMV-p53 plasmid", "setting": "immortalized MRC-5 cells; CMV-p53 0–1 μg co-transfected", "value": "decreased"},
      {"measurement": "MK0.6 promoter activity with control CMV-p53R plasmid", "setting": "immortalized MRC-5 cells; CMV-p53R 0–1 μg co-transfected", "value": "no changes"},
      {"measurement": "sensitivity to GCV compared to that of the parent strain", "setting": "normal MRC-5 cells", "value": "identical with that of the parent strain"},
      {"measurement": "sensitivity to GCV compared to that of the parent strain", "setting": "[4]", "value": 1000, "unit": "fold"},
      {"measurement": "tumor-specificity of promoter activity", "setting": "[5]; tumor cells versus normal cells", "value": "specifically strong in tumors"},
      {"measurement": "transcriptional activity compared with other midkine promoter fragments", "setting": "[5]; tumor cells, FIG. 1", "value": "more potent in the tumor cells than MK1.0 or MK2.3"},
      {"measurement": "transcriptional activity compared with promoter of SV40 virus", "setting": "[5]; tumor cells, FIG. 1", "value": "more potent than the promoter of SV40 virus in the tumor cells"},
      {"measurement": "sensitivity to GCV compared to parent strain", "setting": "lung cancer cells QG-56; MK0.6-TK-introduced QG-56, GCV seven days, FIG. 3A", "value": 1000, "unit": "fold"},
      {"measurement": "sensitivity to GCV compared to parent strain", "setting": "neuroblastoma NGP cells", "value": 1000, "unit": "fold"},
      {"measurement": "sensitivity to GCV compared to parent strain", "setting": "normal fibroblasts HEF", "value": "remained the same"}
    ]}
  ]
}
